Results on 11 molecules are retold here after patent US20060257938A1, “Method of screening for drugs that block ligand binding to a lipid binding protein” (priority 2005, published 2006).

Common to all, as to type: binding
Holding throughout (conditions): response relative to ADIFAB2

The nature of assay [1]: Probe fluorescence ratio response to arachidonic acid relative to ADIFAB2. The gist of the method: (§1)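 Each fatty acid's response was expressed relative to ADIFAB2, the rI-FABP-L72A probe, as ΔR/ΔRreference. ΔR is the change in the background-corrected two-wavelength intensity ratio R=Fλ1/Fλ2 from its analyte-free baseline R0. Emission was read near about 420-480 nm for unbound and about 495-580 nm for FFA-bound probe.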

A short description of assay [2]: Probe fluorescence ratio response to palmitic acid relative to ADIFAB2. The gist of the method:
as §1

Assay [3] is described as follows: Probe fluorescence ratio response to linoleic acid relative to ADIFAB2. The gist of the method: as §1
A short description of assay [4]: Probe fluorescence ratio response to linolenic acid relative to ADIFAB2. The gist of the method: as §1
A short description of assay [5]: Probe fluorescence ratio response to oleic acid relative to ADIFAB2. The gist of the method: as §1

Values joined by “and” are separate entries in the source; they are usually repeats but may differ in a detail not shown here. Equal values may be shown once.

B1: 72Q (protein, listed as Rattus norvegicus)
chain: AFDGTWKVDRNENYEKFMEKMGINVVKRKLGAHDNLKLTITQEGNKFTVKESSNFRNIDVVFELGVDFAYSQADGTELTGTWTMEGNKLVGKFKRVDNGKELIAVREISGNELIQTYTYEGVEAKRIFKKE
modifications: PEPTIDE (1)...(131) wild-type rat intestinal fatty acid binding protein
As for B1, the “DR/DR AA” value in assay [1] (Arachidonic acid) is reported as 0.77; in assay [1] (arachidonic acid) it was 0.770. Further, the “DR/DR PA” value in assay [2] is 0.99 and 0.989. The “DR/DR LA” value in assay [3] was 0.76 and 0.762. The “DR/DR LNA” value in assay [4] is 0.73 and 0.735. Further, in assay [5], the “DR/DR OA” value was 0.78 and 0.777.

B2: 72S (protein, listed as Rattus norvegicus)
chain: AFDGTWKVDRNENYEKFMEKMGINVVKRKLGAHDNLKLTITQEGNKFTVKESSNFRNIDVVFELGVDFAYSSADGTELTGTWTMEGNKLVGKFKRVDNGKELIAVREISGNELIQTYTYEGVEAKRIFKKE
modifications: PEPTIDE (1)...(131) wild-type rat intestinal fatty acid binding protein
As to B2, in assay [1] (Arachidonic acid), the “DR/DR AA” value was found to be 0.65. Further, in assay [2], the “DR/DR PA” value stood at 0.68. In addition, the “DR/DR LA” value in assay [3] is 0.73. Further, in assay [4], the “DR/DR LNA” value is 0.71. Also, the “DR/DR OA” value in assay [5] is given as 0.62.

B3: 73H, 72A (protein, listed as Rattus norvegicus)
chain: AFDGTWKVDRNENYEKFMEKMGINVVKRKLGAHDNLKLTITQEGNKFTVKESSNFRNIDVVFELGVDFAYSAHDGTELTGTWTMEGNKLVGKFKRVDNGKELIAVREISGNELIQTYTYEGVEAKRIFKKE
modifications: PEPTIDE (1)...(131) wild-type rat intestinal fatty acid binding protein
On to B3, for which the “DR/DR AA” value in assay [1] (Arachidonic acid) is 0.15. In assay [2], the “DR/DR PA” value came out at 0.16. For the same molecule, the “DR/DR LA” value in assay [3] came to 0.18. Also, in assay [4], the “DR/DR LNA” value is 0.25. Besides, the “DR/DR OA” value in assay [5] is reported as 0.13.

B4: 104F3, 72A (protein, listed as Rattus norvegicus)
chain: AFDGTWKVDRNENYEKFMEKMGINVVKRKLGAHDNLKLTITQEGNKFTVKESSNFRNIDVVFELGVDFAYSAADGTELTGTWTMEGNKLVGKFKRVDNGKELIFVREISGNELIQTYTYEGVEAKRIFKKE
modifications: PEPTIDE (1)...(131) wild-type rat intestinal fatty acid binding protein
As to B4, the “DR/DR AA” value in assay [1] (arachidonic acid) stood at 0.71. Besides, the “DR/DR PA” value in assay [2] amounted to 0.25. For the same molecule, in assay [3], the “DR/DR LA” value came to 0.50. The “DR/DR LNA” value in assay [4] is 0.45. Besides, the “DR/DR OA” value in assay [5] was determined as 0.47.

B5: 73E, 72A (protein, listed as Rattus norvegicus)
chain: AFDGTWKVDRNENYEKFMEKMGINVVKRKLGAHDNLKLTITQEGNKFTVKESSNFRNIDVVFELGVDFAYSAEDGTELTGTWTMEGNKLVGKFKRVDNGKELIAVREISGNELIQTYTYEGVEAKRIFKKE
modifications: PEPTIDE (1)...(131) wild-type rat intestinal fatty acid binding protein
Take B5: in assay [1] (Arachidonic acid), the “DR/DR AA” value is on record as 0.15. In addition, in assay [2], the “DR/DR PA” value came out at 0.13. Further, the “DR/DR LA” value in assay [3] is recorded as 0.19. Besides, the “DR/DR LNA” value in assay [4] amounted to 0.14. In addition, in assay [5], the “DR/DR OA” value was 0.14.

B6: 72R (protein, listed as Rattus norvegicus)
chain: AFDGTWKVDRNENYEKFMEKMGINVVKRKLGAHDNLKLTITQEGNKFTVKESSNFRNIDVVFELGVDFAYSRADGTELTGTWTMEGNKLVGKFKRVDNGKELIAVREISGNELIQTYTYEGVEAKRIFKKE
modifications: PEPTIDE (1)...(131) wild-type rat intestinal fatty acid binding protein
Consider B6, for which the “DR/DR AA” value in assay [1] (Arachidonic acid) turned out to be 0.45. Moreover, in assay [2], the “DR/DR PA” value amounted to 0.26. Further, the “DR/DR LA” value in assay [3] came to 0.51. In addition, the “DR/DR LNA” value in assay [4] stood at 0.49. In addition, in assay [5], the “DR/DR OA” value is 0.45.

B7: 73K, 72A (protein, listed as Rattus norvegicus)
chain: AFDGTWKVDRNENYEKFMEKMGINVVKRKLGAHDNLKLTITQEGNKFTVKESSNFRNIDVVFELGVDFAYSAKDGTELTGTWTMEGNKLVGKFKRVDNGKELIAVREISGNELIQTYTYEGVEAKRIFKKE
modifications: PEPTIDE (1)...(131) wild-type rat intestinal fatty acid binding protein
Consider B7, for which, in assay [1] (Arachidonic acid), the “DR/DR AA” value is on record as 0.30. Further, the “DR/DR PA” value in assay [2] turned out to be 0.15. In assay [3], the “DR/DR LA” value was determined as 0.29. In assay [4], the “DR/DR LNA” value was determined as 0.28. Besides, in assay [5], the “DR/DR OA” value is given as 0.28.

B8: 73G, 72A (protein, listed as Rattus norvegicus)
chain: AFDGTWKVDRNENYEKFMEKMGINVVKRKLGAHDNLKLTITQEGNKFTVKESSNFRNIDVVFELGVDFAYSAGDGTELTGTWTMEGNKLVGKFKRVDNGKELIAVREISGNELIQTYTYEGVEAKRIFKKE
modifications: PEPTIDE (1)...(131) wild-type rat intestinal fatty acid binding protein
Turning to B8, the “DR/DR AA” value in assay [1] (Arachidonic acid) came to 0.46. Moreover, the “DR/DR PA” value in assay [2] was 0.41. The “DR/DR LA” value in assay [3] was determined as 0.56. The “DR/DR LNA” value in assay [4] was 0.53. Moreover, the “DR/DR OA” value in assay [5] was 0.52.

B9: 72Y (protein, listed as Rattus norvegicus)
chain: AFDGTWKVDRNENYEKFMEKMGINVVKRKLGAHDNLKLTITQEGNKFTVKESSNFRNIDVVFELGVDFAYSYADGTELTGTWTMEGNKLVGKFKRVDNGKELIAVREISGNELIQTYTYEGVEAKRIFKKE
modifications: PEPTIDE (1)...(131) wild-type rat intestinal fatty acid binding protein
On to B9, for which the “DR/DR AA” value in assay [1] (Arachidonic acid) came out at 0.35; in assay [1] (arachidonic acid), 0.346. For the same molecule, the “DR/DR PA” value in assay [2] is 0.41 and 0.415. For the same molecule, in assay [3], the “DR/DR LA” value was 0.64 and 0.637. In addition, the “DR/DR LNA” value in assay [4] is 0.59 and 0.594. The “DR/DR OA” value in assay [5] is 0.56 and 0.557.

B10: 72V (protein, listed as Rattus norvegicus)
chain: AFDGTWKVDRNENYEKFMEKMGINVVKRKLGAHDNLKLTITQEGNKFTVKESSNFRNIDVVFELGVDFAYSVADGTELTGTWTMEGNKLVGKFKRVDNGKELIAVREISGNELIQTYTYEGVEAKRIFKKE
modifications: PEPTIDE (1)...(131) wild-type rat intestinal fatty acid binding protein
Turning to B10, the “DR/DR AA” value in assay [1] (Arachidonic acid) is 0.18. Besides, the “DR/DR PA” value in assay [2] is listed as 0.16. Moreover, in assay [3], the “DR/DR LA” value turned out to be 0.21. For the same molecule, the “DR/DR LNA” value in assay [4] is reported as 0.15. The “DR/DR OA” value in assay [5] was 0.20.

B11: 73F, 72A (protein, listed as Rattus norvegicus)
chain: AFDGTWKVDRNENYEKFMEKMGINVVKRKLGAHDNLKLTITQEGNKFTVKESSNFRNIDVVFELGVDFAYSAFDGTELTGTWTMEGNKLVGKFKRVDNGKELIAVREISGNELIQTYTYEGVEAKRIFKKE
modifications: PEPTIDE (1)...(131) wild-type rat intestinal fatty acid binding protein
For the molecule B11, the “DR/DR AA” value in assay [1] (Arachidonic acid) came to 1.21; in assay [1] (arachidonic acid), 1.208. For the same molecule, in assay [2], the “DR/DR PA” value is 1.13 and 1.128. Besides, in assay [3], the “DR/DR LA” value is 1.23 and 1.234. Further, the “DR/DR LNA” value in assay [4] was 1.86 and 1.861. For the same molecule, the “DR/DR OA” value in assay [5] is 0.73 and 0.728.
